Reference: article PMC4958246

Target: polymerized rabbit skeletal muscle actin (F-actin) (rabbit) (UniProt P68135)
Assay: co-sedimentation; proteins incubated with polymerized rabbit skeletal actin (40 µl of a 1-mg/ml stock; 50 mM KCl, 2 mM MgCl2, 1 mM ATP); WD0830 at 40 ng/ml final; centrifuged at 14,000 x g 1 h 24°C, then 150,000 x g 1.5 h 24°C; supernatants and pellets on silver-stained SDS-PAGE, densitometry with ImageJ

Q: How did the percent of the protein in the pellet with actin turn out when “Wolbachia pipientis wMel protein WD0830 (Wolbachia actin-localizing effector 1) (natural protein)” was run?
A: 24%
